Data from US20210113649A1 (UNIVERSITY OF FLORIDA RESEARCH FOUNDATION, published 2021).
Blank lines part the entries; values can stand above or below the binder they belong to.

Key:
[1] = biological target: T1, GFP-DAXX S690A (human, UniProt Q9UER7 1-740); assay: anti-FLAG IP of 293T cells cotransfected with GFP-DAXX constructs and FLAG-SREBP2 (FIG. 6A)
T1 construct: also called S690A mutant; not shown: GFP from the pEGFP-C2 vector
Excerpt: (§1) FIGS. 6A to 6H show mutation of DAXX phosphorylation sites disrupts DAXX-SREBP2 interaction, impairs lipogenesis and tumor growth. […] The GFP-wt DAXX was transfected alone in the absence of FLAG-SREBP2 as a control (lane 7). The lysates of transfected cells were subjected to IP with an anti-FLAG antibody, Both DAXX and FLAG-SREBP2 were detected in immunoprecipitates and input lysates. […] The precipitated DNAs were subjected to qPCR with primers specific to promoter regions of the indicated genes. qPCRs for the 3′ UTR of the FASN and ACACA genes serve as negative control. […] ATRX qRT-PCR serves as a control for genes not regulated by SREBPs. […] Cells were serum-starved for 24 h. DMSO or a mTOR inhibitor (0.1 μM final concentration) was added for 5 h before cell lysis. […] RNAs were isolated from cells cultured in serum-free DMEM for 24 h as in FIG. 6D.

[2] = biological target: T2, GFP-DAXX S668A/S671A (human, UniProt Q9UER7 1-740); assay: as above
T2 construct: also called S668A/S671A mutant; not shown: GFP from the pEGFP-C2 vector
Excerpt: as §1

[3] = biological target: T3, GFP-DAXX S495A (human, UniProt Q9UER7 1-740); assay: as above
T3 construct: also called S495A mutant; not shown: GFP from the pEGFP-C2 vector
Excerpt: as §1

[4] = biological target: T4, GFP-DAXX S671A (human, UniProt Q9UER7 1-740); assay: as above
T4 construct: also called S671A mutant; not shown: GFP from the pEGFP-C2 vector
Excerpt: as §1

[5] = biological target: T5, DAXX (death domain-associated protein), endogenous (human, UniProt Q9UER7 1-740); assay: IP of MDA-MB-231 or PC3 cell extracts with an anti-DAXX mAb, immunoblot for SREBP2 (M, mature)
T5 construct: Endogenous protein pulled down with an anti-DAXX mAb or co-precipitated with FLAG-SREBP2; also called endogenous DAXX
Excerpt: FIGS. 2A to 2E show DAXX binds to SREBP2. […] MDA-MB-231 or PC3 cell extracts were subjected to IP with a control (IgG) or an anti-DAXX monoclonal antibody. The immunoprecipitated SREBP2 was detected. P, precursor; M, mature SREBP2. FIGS. 2B, 2C, and 2D show there are two independent binding sites in DAXX for mature SREBP2. […] The cell lysates were subjected to FLAG IP. […] HC: IgG heavy chain. *: non-specific band. FIG. 2E is a schematic drawing of DAXX-SREBP2 interactions. The two independent SREBP2-binding sites are depicted. Also shown is the sequence of aa 327-335 within the DAXX HBD critical for the DAXX-SREBP2 interactions. SIM: SUMO-interacting motif; DHB: DAXX helical bundle; HBD: histone-binding domain; PEST: proline, glutamic acid, serine, and threonine-rich sequence. Numbers refer to aa residue positions in the DAXX protein. Note that the irrelevant lanes in the same blots (between the input and IP samples in the PC3 blot in panel A, between lanes 4 and 5, and lanes 12 and 13 in panel B, and between lanes 1 and 2 in panel D) are left out.
Immunoprecipitation (IP) of total cell extracts with anti-DAXX antibody evidenced co-precipitation of two SREBP2 proteins (FIG. 2A) that correspond to the precursor (P) and the mature (M) forms of SREBP2. […]

T1 sequence (Q9UER7 whole entry S690A): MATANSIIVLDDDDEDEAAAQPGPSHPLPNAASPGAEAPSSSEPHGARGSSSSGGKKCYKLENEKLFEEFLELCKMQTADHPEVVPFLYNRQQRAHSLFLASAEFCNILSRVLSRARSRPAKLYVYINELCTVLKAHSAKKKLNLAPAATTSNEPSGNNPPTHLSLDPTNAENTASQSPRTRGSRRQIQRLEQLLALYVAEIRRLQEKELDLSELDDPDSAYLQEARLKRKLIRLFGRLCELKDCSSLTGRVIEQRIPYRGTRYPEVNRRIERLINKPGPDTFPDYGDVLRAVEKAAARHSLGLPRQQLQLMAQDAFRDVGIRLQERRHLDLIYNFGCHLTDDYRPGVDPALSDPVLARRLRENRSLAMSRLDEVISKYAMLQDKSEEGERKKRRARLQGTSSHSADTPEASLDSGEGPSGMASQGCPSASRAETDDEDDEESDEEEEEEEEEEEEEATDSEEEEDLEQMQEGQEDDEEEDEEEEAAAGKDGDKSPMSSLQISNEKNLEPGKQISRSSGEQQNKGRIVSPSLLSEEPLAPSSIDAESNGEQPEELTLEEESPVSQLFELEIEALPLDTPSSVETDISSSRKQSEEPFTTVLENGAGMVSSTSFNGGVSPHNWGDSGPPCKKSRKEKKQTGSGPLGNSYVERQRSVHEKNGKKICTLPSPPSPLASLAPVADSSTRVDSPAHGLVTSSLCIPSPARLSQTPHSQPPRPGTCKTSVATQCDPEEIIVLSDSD
T4 sequence (Q9UER7 whole entry S671A): as the sequence (Q9UER7 whole entry S690A) above, with S671A, A690S counted along it
T3 sequence (Q9UER7 whole entry S495A): as the sequence (Q9UER7 whole entry S690A) above, with S495A, A690S counted along it
T5 sequence (Q9UER7 whole entry, the tested form may be a part): as the sequence (Q9UER7 whole entry S690A) above, with A690S counted along it
T2 sequence (Q9UER7 whole entry S668A/S671A): as the sequence (Q9UER7 whole entry S690A) above, with S668A, S671A, A690S counted along it

binding result [1]: no binding
binding result [2]: no binding
binding result [3]: no binding
binding result [4]: no binding
B1: FLAG-SREBP2 (mature) (other, UniProt Q12772 1-481, looked up)
chain: MDDSGELGGLETMETLTELGDELTLGDIDEMLQFVSNQVGEFPDLFSEQLCSSFPGSGGSGSSSGSSGSSSSSSNGRGSSSGAVDPSVQRSFTQVTLPSFSPSAASPQAPTLQVKVSPTSVPTTPRATPILQPRPQPQPQPQTQLQQQTVMITPTFSTTPQTRIIQQPLIYQNAATSFQVLQPQVQSLVTSSQVQPVTIQQQVQTVQAQRVLTQTANGTLQTLAPATVQTVAAPQVQQVPVLVQPQIIKTDSLVLTTLKTDGSPVMAAVQNPALTALTTPIQTAALQVPTLVGSSGTILTTMPVMMGQEKVPIKQVPGGVKQLEPPKEGERRTTHNIIEKRYRSSINDKIIELKDLVMGTDAKMHKSGVLRKAIDYIKYLQQVNHKLRQENMVLKLANQKNKLLKGIDLGSLVDNEVDLKIEDFNQNVLLMSPPASDSGSQAGFSPYSIDSEPGSPLLDDAKVKDEPDSPPVALGMVDRSR
notes: domain: mature form; also called mature SREBP2 (Plasmid #26807); not shown: FLAG tag

B2: SREBP2 mature form, endogenous (other, human, UniProt Q12772 1-484, looked up)
chain: MDDSGELGGLETMETLTELGDELTLGDIDEMLQFVSNQVGEFPDLFSEQLCSSFPGSGGSGSSSGSSGSSSSSSNGRGSSSGAVDPSVQRSFTQVTLPSFSPSAASPQAPTLQVKVSPTSVPTTPRATPILQPRPQPQPQPQTQLQQQTVMITPTFSTTPQTRIIQQPLIYQNAATSFQVLQPQVQSLVTSSQVQPVTIQQQVQTVQAQRVLTQTANGTLQTLAPATVQTVAAPQVQQVPVLVQPQIIKTDSLVLTTLKTDGSPVMAAVQNPALTALTTPIQTAALQVPTLVGSSGTILTTMPVMMGQEKVPIKQVPGGVKQLEPPKEGERRTTHNIIEKRYRSSINDKIIELKDLVMGTDAKMHKSGVLRKAIDYIKYLQQVNHKLRQENMVLKLANQKNKLLKGIDLGSLVDNEVDLKIEDFNQNVLLMSPPASDSGSQAGFSPYSIDSEPGSPLLDDAKVKDEPDSPPVALGMVDRSRILL
notes: domain: mature form (N-terminal domain released by cleavage); also called mature SREBP2
binding result [5]: binds
